Values belong to the molecule of their own block, whether it stands above or below them. Square brackets hold non-standard residues; d marks the D form. Ends that are not written are not given here. Peptide text beside a SMILES is read from it. * marks the point of attachment. X1 = O=C(O)CN1CCN(CC(=O)O)CCN(CC(=O)NCCN2C(=O)CC(*)C2=O)CCN(CC(=O)O)CC1
Experiments:
[1] = human, in vivo
Description: Translation of [^64Cu]-DOTA-ECL1i for human Imaging. Animal toxicity studies with non-radioactive Cu-DOTA-ECL1i, dosimetry using [^64Cu]-DOTA-ECL1i in naïve mice were performed and submitted the exploratory investigative new drug (eIND) application to US Food Drug Administration (FDA). Following approvals from FDA, Washington University Radioactive Drug Research Committee (RDRC) and Institutional Review Board (IRB), the human dosimetry studied in six healthy volunteers (3 males, 3 females) who were injected with [^64Cu]-DOTA-ECL1i (5.2 mCi-10.4 mCi) and scanned at 15-30 min, 2-4 h, 20 h, and 44 h post injection was initiated. […] Approximately 80% of the activity was excreted in the urine within 2-4 hours after injection. […] The gender average Effective Dose was 0.064±0.012 rem/mCi (0.073 rem/mCi for females and 0.056 rem/mCi for the males). The critical organ for both genders was the urinary bladder wall, with the highest average estimated dose derived from the female model at 0.45 rad/mCi. Therefore, a dose of 8-10 mCi was injected to each patient in the HNSCC patient studies.

[2] = molecular target: CCR2 (human, on THP-1 cells and in human HNSCC tissue) (human) (UniProt P41597); test: in vitro binding assay using THP-1 cells (competitive receptor binding with the non-radioactive counterpart, per paragraph 179)
[3] = molecular target: T1, recombinant human CCR2 N-terminus protein (1-42 amino acids) (Homo sapiens, UniProt P41597); test: Peptide ELISA of biotin-labelled peptides; format: binding; parameters: dose or concentration left out as unconfirmed; conditions: n=3/group
T1 construct: recombinant human CCR2 N-terminus protein (1-42 amino acids)
T1 sequence (P41597 1-42): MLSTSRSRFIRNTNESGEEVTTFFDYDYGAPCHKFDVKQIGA
Description: Phage display screening and identification of new CCR2 binding peptides. Using a recombinant human CCR2 N-terminus protein (1-42 amino acids) with a glutathione s-transferase (GST) tag, phage display screening was performed using Ph.D.™-12 peptide library to identify sequences binding to CCR2. After three rounds of phage selections, 50 phages were selected to amplify in E. coli, titer, and for DNA sequencing. Enzyme-linked immunosorbent assay (ELISA) was performed with pre-selected phages and identified five peptide sequences showing potential binding to CCR2. These peptides conjugated with biotin labels were customized for further peptide ELISA assays. […] Therefore, these peptides were selected as CCR2 binding sequences to synthesize peptide-chelator conjugates. To further confirm the specific binding of these peptides, peptide docking studies were performed based on a crystal structure of CCR2 (PDB Id 6GPS) and receptor structures resulting from molecular dynamics simulations of CCR2 and endogenous ligand CCL2 complex using the program AutoDock CrankPep.

[4] = molecular target: T2, CD163 (human, on CD163 overexpressing U87 cells and in human carotid endarterectomy tissue) (human, UniProt Q86VB7 42-1156); test: competitive cell binding on U87 cells overexpressing CD163; cold ICT-01 displaces ^64Cu-ICT-01
T2 construct: whole, on cells; also called CD163 receptor; human CD163
Description: The in vitro cell binding assay of ⁶⁴Cu-ICT-01 was performed in U87 cells, which overexpresses CD163 receptor.

[5] = molecular target: T2, CD163 (human, on CD163 overexpressing …); test: competitive cell binding on CD163 overexpressing U87 cells; 37 kBq ^64Cu-ICT-01 with non-radioactive ICT-01 at 10^-5-10^-10 M, gamma counting
Description: An in vitro cell binding assay of ⁶⁴Cu-ICT-01 to CD163 was performed with a CD163 overexpressing U87 cell line. U87 cells seeded on a 12-well tissue culture plate were incubated at room temperature with 37 kBq of ⁶⁴Cu-ICT-01 in the presence of non-radioactive ICT-01 in increasing concentrations (10⁻⁵-10⁻¹⁰ M) in binding media (Dulbecco's Modified Eagle Medium (DMEM): 25 mM HEPES, 0.2% bovine serum albumin (BSA), and 0.3 mM 1,10-phenanthroline). The reaction media was aspirated after incubation. Cells were rinsed with 0.8 mL of ice-cold pH 7.4, 0.2% BSA/0.01 M phosphate buffered saline (PBS) twice and lysed in 0.8 mL of 1 M NaOH for 10 min. Each well was rinsed with 0.8 mL of PBS (1×, pH7.4)/0.2% BSA, which was collected into a plastic tube. The radioactivity in tubes was measured with a gamma counter (Wallac Wizard 1480, Perkin Elmer). The half-maximal inhibitory concentration (IC₅₀) for ⁶⁴Cu-ICT-01 was calculated using the GraphPad Prism (10.0.2).

T2 sequence (Q86VB7 42-1156): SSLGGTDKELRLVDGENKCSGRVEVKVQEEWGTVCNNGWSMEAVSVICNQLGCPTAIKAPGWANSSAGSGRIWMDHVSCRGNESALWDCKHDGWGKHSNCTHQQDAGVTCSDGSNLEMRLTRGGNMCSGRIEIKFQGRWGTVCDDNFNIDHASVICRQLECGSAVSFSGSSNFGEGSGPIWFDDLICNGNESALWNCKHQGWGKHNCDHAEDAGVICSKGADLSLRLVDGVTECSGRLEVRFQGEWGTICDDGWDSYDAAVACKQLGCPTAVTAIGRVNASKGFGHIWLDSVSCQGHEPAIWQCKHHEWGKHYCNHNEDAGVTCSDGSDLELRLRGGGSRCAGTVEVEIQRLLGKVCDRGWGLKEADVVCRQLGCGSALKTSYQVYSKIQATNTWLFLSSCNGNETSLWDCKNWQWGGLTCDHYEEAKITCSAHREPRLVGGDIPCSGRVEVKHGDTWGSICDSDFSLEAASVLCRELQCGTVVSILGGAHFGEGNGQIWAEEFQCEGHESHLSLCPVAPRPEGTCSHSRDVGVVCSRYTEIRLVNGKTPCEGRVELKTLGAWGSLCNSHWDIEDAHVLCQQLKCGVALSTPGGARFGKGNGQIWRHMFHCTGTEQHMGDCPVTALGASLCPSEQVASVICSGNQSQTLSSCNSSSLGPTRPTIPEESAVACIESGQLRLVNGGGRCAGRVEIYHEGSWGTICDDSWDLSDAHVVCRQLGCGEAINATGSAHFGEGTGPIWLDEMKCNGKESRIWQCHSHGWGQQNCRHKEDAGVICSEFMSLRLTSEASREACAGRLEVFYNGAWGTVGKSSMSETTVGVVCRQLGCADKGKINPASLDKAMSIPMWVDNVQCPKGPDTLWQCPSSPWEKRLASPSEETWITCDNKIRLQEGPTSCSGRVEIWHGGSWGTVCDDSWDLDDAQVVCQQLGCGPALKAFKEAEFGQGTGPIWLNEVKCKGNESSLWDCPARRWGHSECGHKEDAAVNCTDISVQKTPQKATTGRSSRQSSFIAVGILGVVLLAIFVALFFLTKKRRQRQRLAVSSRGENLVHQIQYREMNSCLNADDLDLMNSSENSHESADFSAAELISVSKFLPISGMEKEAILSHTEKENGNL

Molecule: CC(C)C[C@@H](N)C(=O)NCC(=O)N[C@@H](C(=O)N[C@H](Cc1ccccc1)C(=O)N[C@H](CC(C)C)C(=O)N[C@H](CCCCN)C(=O)N[C@H](CSC1CC(=O)N(CCNC(=O)CN2CCN(CC(=O)O)CCN(CC(=O)O)CCN(CC(=O)O)CC2)C1=O)C(=O)O)[C@H](C)O (stereo partly drawn) [[^64Cu]-DOTA-ECL1i, metal not drawn] (H-[dL]G[dT][dF][dL][dK][dC](X1)-OH; N-terminus and C-terminus assumed)
- Effective Dose, females [1]: 0.073 rem/mCi
- Effective Dose, males [1]: 0.056 rem/mCi
- gender average Effective Dose [1]: 0.064±0.012 rem/mCi
- highest average estimated dose, urinary bladder wall (critical organ) [1]: 0.45 rad/mCi

- IC50 [2]: 58.3 nM
Molecule: [^64Cu]-DOTA-ECL1i (peptide)

- binding to CCR2 N-terminus protein compared to GST tag alone and BSA [3]: significantly higher binding
Molecule: LIPAPGGTPRAG [P21]

- binding to CCR2 N-terminus protein compared to GST tag alone and BSA [3]: significantly higher binding
Molecule: VDDHYGTIVRNG [P08]

- binding to CCR2 N-terminus protein compared to GST tag alone and BSA [3]: significantly higher binding
Molecule: HWKWLKPWAVNT [P15]

- IC50 [4]: 26.8 nM
- IC50 [5]: 14.4 nM
B1: ICT-01 (non-radioactive) (peptide)
peptide: WFWNHGWQWSSK
modifications: not fully specified
notes: also called non-radioactive ICT-01; CD163 targeting peptide ICT-01

Reference: patent US20240216553A1, “DEVELOPMENT OF CD163 TARGETING AGENT FOR IMAGING AND THERAPY” (Washington University, priority 2022, published 2024)
